Results: patent US6235873

Test system: Stat3-C (A662C/N664C Stat3) (Mus musculus)
Experiment: cell_activity
Settings: approximately 10-fold, no induced tyrosine phosphorylation

## 4x m67 luciferase reporter
  activity (fold over background): 10
